Data: US12391768B2, “Antibodies to ticagrelor and methods of use” (MEDIMMUNE LIMITED, priority 2014, dated 2025)

Experiments:
TICA0010 Fab = assay: HTRF competition binding selectivity assay, TICA0010 His-Fab; parameters: species or system human; settings: first series (Table 2), not DMSO normalised; read-out: IC50 (uM) for inhibition of biotinylated ticagrelor binding to TICA00l0 his-Fab
Procedure: (§1) Total Binding control wells were set up which contained all of the assay components above except that 5 ul assay buffer was added in place of the test selectivity compound addition. Negative Binding control wells were set up which contained all of the assay components included in the Total Binding control wells except that 5ul assay buffer was added in place of the His-Fab addition. Test compound serial titrations were either ½ or ⅓ depending on the particular experiment and top final assay compound concentrations were optimized on a compound specific basis. The concentration of biotinylated ticagrelor and His-Fab was optimized on a Fab specific basis in separate experiments. For the four Fabs investigated at the end of the lead isolation phase (TICA0010, TICA0049, TICA0053 and TICA0072) the final assay reagent concentrations used are set out in Table 1 below:
For the two Fabs investigated at the end of the lead optimization phase (TICA0162 and TICA0212) the final assay reagent concentrations used were 5nM biotinylated ticagrelor and 1 nM His Fab in both cases. […] In order to enable subsequent normalization of data to correct for any such vehicle related effects parallel titrations of DMSO alone were included in most experiments in which the final assay DMSO concentrations mirrored those of the test compound serial dilutions. At the end of the set up procedure that assay was incubated for 3hrs at RT before being read on an Envision plate reader using a standard read protocol.
The negative ratio value used in the calculation of % Delta F was derived from the Negative Binding control wells. % Delta F values were then used to calculate % Specific Binding values according to the equation below: Specific Binding (%)={(Sample Delta F−Negative Binding Delta F)/(Total Binding Delta F−Negative Binding Delta F)}×100
For standard calculations of % Specific Binding Total Binding Delta F was taken from Total Binding control wells which contained all of the aforementioned components of the assay but without inclusion of any competing test compound.
In those experiments where DMSO normalization was applied DMSO normalised % Specific Binding was calculated essentially according to the equation above except that in this case Total Binding Delta F was taken from wells containing all of the components in the Total Binding control wells as well as DMSO at a concentration equivalent to that in the relevant sample well.

TICA0212 Fab = assay: HTRF competition binding selectivity assay, TICA0212 His-Fab; parameters: species or system human; settings: Table 7, DMSO normalised; 5 nM biotinylated ticagrelor, 1 nM His Fab; read-out: IC50 (uM) for inhibition of biotinylated ticagrelor binding to TICA0212 Fab
Procedure: as §1
For the two Fabs investigated at the end of the lead optimization phase (TICA0162 and TICA0212) the final assay reagent concentrations used were 5nM biotinylated ticagrelor and 1 nM His Fab in both cases. […] At the end of the set up procedure that assay was incubated for 3hrs at RT before being read on an Envision plate reader using a standard read protocol. […]

[1] = biological target: TICA0159 IgG binding to biotinylated ticagrelor; assay: Second generation HTRF epitope competition assay
Procedure: Purified parent TICA0072 (scFv or Fab) was used as a benchmark in all experiments such that improvements in IC50 measured with optimized variants (scFv or Fab) could be expressed as fold improvements over parent TICA0072. Total Binding Control Wells contained all assay components except that 5 ul assay buffer was added in place of the purified scFv or Fab sample. Negative Binding control wells contained all of the components of the Total Binding control wells except that 5 ul of assay buffer was added in place of the TICA0072 IgG.
In both single point HTS and multipoint IC50 profiling versions of the assay. plates were incubated for 3 hrs at RT before being read on an Envision plate reader using a standard HTRF read protocol in which samples are excited at 337 nm and time resolved fluorescence emission is measured at both 620 nm and 665 nM.
Raw 665 nm and 620 nm counts were used to calculate Delta F (%) and % Specific Binding according to the equations described earlier in Assays 1 and 4, respectively. For multipoint secondary profiling experiments IC50 values were determined using Graphpad Prism software using sigmoidal dose response (variable slope) curve fitting (4 parameter logistic equation).
This assay was used only in multipoint IC50 profiling format (as opposed to HTS format) and was performed essentially identically to the method given in Assay 5 (above) for multipoint IC50 profiling of purified Fab variants in the parent TICA0072 IgG based epitope competition assay. The only difference being that TICA0159 IgG was used in place of TICA0072 IgG at the appropriate point in the assay set up but at the same 16nM final assay concentration. In all other respects this assay was performed exactly as described above in the multipoint secondary profiling version for purified Fab.

[2] = system: TAM mediated inhibition of ADP-induced platelet aggregation; assay: Light transmission aggregometry in human PRP, reversal of TAM; type: cell-based; settings: for mean extent of TAM reversal: Example 10, 1 μM Fab, n=3
Procedure: The extent and potency of TICA0212/MEDI2452 to reverse ticagrelor or TAM mediated inhibition of ADP-induced platelet aggregation was determined in human platelet rich plasma (PRP) using light transmission aggregometry.
For the in vitro human PRP assay, blood was collected from fasted healthy volunteers by vein puncture of vena cephalica. […] The anticoagulated human blood was centrifuged at 240× g for 15 min. PRP was carefully removed and transferred to a clean vial. Platelet poor plasma (PPP) was prepared by centrifugation of the PRP at 2000× g for 15 min. Light transmission aggregometry (LTA) was evaluated in PRP by the Platelet Aggregation Profiler (PAP-8E, Bio/Data Corporation, PA, USA.). Zero % aggregation was defined as the light transmission of PRP and 100% aggregation was defined as the light transmission of PPP.
PRP was preincubated with 1 μM ticagrelor or TAM for 1 hour before co-incubating with different concentrations of TICA0212 or an isotype control Fab for 30 minutes. Platelet aggregation was initiated by addition of 20 uM ADP and was continuously recorded for 6 min. Data for final aggregation (FA) extent at 6 min was analysed.
The time of onset of TICA0212/MEDI2452 to reverse ticagrelor or TAM was determined in human platelet rich plasma (PRP) using light transmission aggregometry as in example 8. PRP was preincubated with 1 μM ticagrelor or TAM for 1 hour before adding 1 μM TICA0212/MEDI2452 and co-incubating for 5, 10, 15, 30 and 60 min, or adding an isotype control Fab for 30 min. Platelet aggregation was initiated by addition of 20 μM ADP and was continuously recorded for 6 min. Data for final aggregation (FA) extent at 6 min was analyzed.

Molecule | IC50 (TICA0010 Fab) [µM] | IC50 (TICA0212 Fab) [µM] | IC50 ([1]; Fab, 16 nM TICA0159 IgG, 1 nM biotinylated ticagrelor) [nM] | Fold Improved ([1]; IC50 relative to parent TICA0072 Fab) | improvement in IC50 relative to the parent TICA0072 Fab ([1]; second generation epitope competition assay) | IC50 ([2]; 1 μM TAM, 20 μM ADP, human PRP, 30 min co-incubation, mean n=5, read-out: IC50, half-maximum reversal of TAM mediated inhibition of ADP-induced platelet aggregation) [nM] | mean extent of reversal of TAM ([2]; Example 9, 1:1 conditions (1 μM Fab: 1 μM TAM), 30 min incubation) [%] | mean extent of TAM reversal ([2]; 1 μM TAM, co-incubation 5 min) [%] | mean extent of TAM reversal ([2]; 1 μM TAM, co-incubation 10 min) [%] | mean extent of TAM reversal ([2]; 1 μM TAM, co-incubation 15 min) [%] | mean extent of TAM reversal ([2]; 1 μM TAM, co-incubation 30 min) [%] | mean extent of TAM reversal ([2]; 1 μM TAM, co-incubation 60 min) [%]
CCCSc1nc(N[C@@H]2C[C@H]2c2ccc(F)c(F)c2)c2nnn([C@@H]3C[C@H](OCCO)[C@@H](O)[C@H]3O)c2n1 [Ticagrelor, (1S,2S,3R,5S)-3-[7-{[(1R,2S)-2-(3,4-difluorophenyl)cyclopropyl]amino}-5-(propylthio)-3H-[1,2,3]triazolo[4,5-d]pyrimidin-3-yl]-5-(2-hydroxyethoxy)cyclopentane-1,2-diol] | 0.122 | 0.035 |  |  |  |  |  |  |  |  |  | 
TICA0212: combination of TICA0162 and TICA0152; VH SEQ ID NO:72, VL SEQ ID NO:77 (antibody, listed as Homo sapiens, V domains shown) VH: QVQLQESGAEVKKPGSSVRVSCKASGGTFDSYSIHWVRQAPGQGLEWMGGIIPAFGTLSSAQDFQARVTISADKSTSTAYMELSGLRSEDTAVYYCARGSFDYYFWSASHPPNDALAIWGQGTLVTVSS VL: QSVVTQPPSVSAAPGQKVTISCSGSNSDIGNNYVSWYQQLPGTAPKLLIYDNNKRPSGIPDRFSGSKSGTSATLAITGLQAGDEADYYCGTWLYDRAVGLFGGGTKVTVL |  |  | 12 | 142.8 | approximately 2 log | 780 | 62 | 53 | 56 | 58 | 69 | 74
